# Assay results as given in patent US20250269051A1 (ALMAC DISCOVERY, published 2025).
# Tests used:
# human ROR1-Fc (CHO) = molecular target: T1, human ROR1-Fc (CHO) (human); test: ELISA on coated human ROR1-hFc, one concentration (5 µg/mL)
# T1 construct: ROR1 extracellular domain fused to human Fc; also called huROR1-Fc; hROR1-Fc
# Experimental: (§1) In brief, ELISA method as follows. Wells coated with 100ng of ROR1-hFc antigen and incubated, covered, at room temperature for 2 hr. Plates washed 3×400ul per well with PBST (PBS+0.05% Tween 20 (v/v)), then blocked with 4% skimmed milk powder (w/v) in PBST for 1 hour at 37° C. Plates washed as before plus additional wash in PBS alone. HisMyc-tagged binding proteins were diluted in 4% milk PBST and incubated overnight at 4° C. Plates washed 3× with PBST, 3× PBS and binding detected using appropriate secondary detection antibody in 4% milk PBST, room temperature 1 hour. Secondary antibodies used include: [0658] Anti-c-Myc, HRP (Invitrogen #R951-25) [0659] Mouse anti-polyHis, HRP (Sigma #A7058)
# human ROR2-Fc (CHO) = molecular target: T2, human ROR2-Fc (CHO) (human); test: ELISA; hROR2-hFc coated
# T2 construct: also called hROR2-hFc
# T2 sequence (chain, as listed by the source limits assumed): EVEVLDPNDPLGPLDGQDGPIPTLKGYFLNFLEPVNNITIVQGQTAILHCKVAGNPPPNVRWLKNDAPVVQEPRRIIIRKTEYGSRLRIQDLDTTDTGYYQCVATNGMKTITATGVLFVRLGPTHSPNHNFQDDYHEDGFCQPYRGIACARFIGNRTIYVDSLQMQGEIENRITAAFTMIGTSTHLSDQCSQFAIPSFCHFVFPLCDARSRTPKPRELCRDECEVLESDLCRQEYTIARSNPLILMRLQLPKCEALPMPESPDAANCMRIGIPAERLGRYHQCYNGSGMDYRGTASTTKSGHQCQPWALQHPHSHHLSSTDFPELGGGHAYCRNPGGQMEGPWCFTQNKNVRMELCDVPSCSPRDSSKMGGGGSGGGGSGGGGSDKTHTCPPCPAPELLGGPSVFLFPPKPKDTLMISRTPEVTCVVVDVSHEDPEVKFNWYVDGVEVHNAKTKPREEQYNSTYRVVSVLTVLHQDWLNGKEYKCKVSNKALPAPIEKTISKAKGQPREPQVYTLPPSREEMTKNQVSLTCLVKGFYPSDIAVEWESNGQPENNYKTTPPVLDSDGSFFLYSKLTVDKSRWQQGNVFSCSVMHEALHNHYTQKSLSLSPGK
# Experimental: as §1
# The same ELISA procedure was employed as described above but with either mROR1-hFc or hROR2-hFc coated on the plates.
# T1 sequence (chain, as listed by the source limits assumed): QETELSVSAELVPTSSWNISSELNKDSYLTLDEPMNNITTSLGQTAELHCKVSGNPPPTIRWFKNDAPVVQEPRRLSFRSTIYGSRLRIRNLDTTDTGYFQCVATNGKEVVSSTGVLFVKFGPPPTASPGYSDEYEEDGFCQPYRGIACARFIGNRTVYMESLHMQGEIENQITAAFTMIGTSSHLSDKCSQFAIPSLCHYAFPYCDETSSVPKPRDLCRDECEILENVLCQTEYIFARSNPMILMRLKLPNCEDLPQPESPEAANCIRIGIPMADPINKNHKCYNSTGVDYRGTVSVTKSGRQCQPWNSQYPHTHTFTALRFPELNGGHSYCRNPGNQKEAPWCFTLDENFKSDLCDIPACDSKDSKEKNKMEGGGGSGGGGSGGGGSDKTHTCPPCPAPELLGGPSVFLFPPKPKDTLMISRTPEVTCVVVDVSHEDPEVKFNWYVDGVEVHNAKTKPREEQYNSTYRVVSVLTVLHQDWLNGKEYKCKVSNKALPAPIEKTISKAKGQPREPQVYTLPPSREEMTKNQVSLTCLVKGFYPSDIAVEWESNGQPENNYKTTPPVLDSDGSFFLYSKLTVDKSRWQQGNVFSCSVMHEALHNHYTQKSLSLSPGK
Binder,binding result (human ROR1-Fc (CHO)),binding result (human ROR2-Fc (CHO))
"AA5.S (VNAR, P3A1 G1 loop variant from the selection on streptavidin beads; also called P3A1 G1 loop variant AA5.S) VNAR: TRVDQSPSSLSASVGDRVTITCVLTGTGYGLYSSTYWYRKNPGSSDEERIIIGGRYSESVNKGSKSFTLTISSLQPEDSATYYCRAREARHPWLRQWYDGAGTKVEIKQ",binds,–
"NAC6.S (VNAR, VNAR, P3A1 G1 loop variant; entry includes the HisMyc tag; also called P3A1 G1 NAC6.S; P3A1G1 NAC6.S) VNAR: TRVDQSPSSLSASVGDRVTITCVLTDTRYALYSSTYWYRKNPGSTDEERISIGGRYSESVNKGSKSFTLTISSLQPEDSATYYCRAREARHPWLRQWYDGAGTKVEIKQ",–,no binding

# Next, values leading:
binding result (human ROR1-Fc (CHO)),binding result (human ROR2-Fc (CHO)),Binder
–,no binding,"AE3.S (VNAR, VNAR, P3A1 G1 loop variant; entry includes the HisMyc tag; also called P3A1 G1 AE3.S; P3A1G1 AE3.S) VNAR: TRVDQSPSSLSASVGDRVTITCVLTGTRYGLYSSTYWYRKNPGSSDEERISISGRYSESVNKGTKSFTLTISSLQPEDSATYYCRAREARHPWLRQWYDGAGTKVEIKQ"
binds,–,"AC5.S (VNAR, P3A1 G1 loop variant from the immunotube selection; also called P3A1 G1 loop variant AC5.S) VNAR: TRVDQSPSSLSASVGDRVTITCVLTDTSYGLYSSTYWYRKNPGSSNKERMSISGRYSESVNKGSKSFTLTISSLQPEDSATYYCRAREARHPWLRQWYDGAGTKVEIKQ"
